# Data from patent WO2025083273A1 (dated 2025).
# T1: human DR3 (TNFRSF25) expressed on cells (human, UniProt Q93038 25-417)
# T1 sequence: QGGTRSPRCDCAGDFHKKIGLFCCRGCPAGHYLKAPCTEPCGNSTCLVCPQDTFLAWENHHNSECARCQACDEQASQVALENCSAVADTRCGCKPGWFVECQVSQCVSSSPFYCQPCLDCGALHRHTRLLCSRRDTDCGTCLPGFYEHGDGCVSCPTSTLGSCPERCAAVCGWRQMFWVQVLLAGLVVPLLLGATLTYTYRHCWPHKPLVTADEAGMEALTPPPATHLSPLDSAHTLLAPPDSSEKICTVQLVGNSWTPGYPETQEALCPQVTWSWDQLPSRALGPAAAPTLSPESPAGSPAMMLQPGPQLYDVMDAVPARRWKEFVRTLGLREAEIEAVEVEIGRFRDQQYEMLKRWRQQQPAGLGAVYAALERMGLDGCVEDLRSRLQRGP
# Biological target: T1, human DR3 (TNFRSF25) expressed on cells
# Experiment: cell-based or functional assay
Molecule,"Signal (FLU), isotype control [FLU]",Signal (FLU)
R347 IgG (antibody),385000,
"VHg10/VLg13 (antibody, human IgG1, V domains shown) VH: EVQLVESGGGLVQPGGSLRLSCAASGFTFSSYAMSWVRQAPGKGLEWVSTISDGDSYSYFPDSVKDRFTISRDNSKNTLYLQMNSLRAEDTAVYYCARDRIYGSVQYYAMDYWGQGTLVTVSS VL: DIQMTQSPSSLSASVGDRVTITCRASESVEFSGTSLMQWYQQKPGKAPKLLIYAASNVESGVPSRFSGSGSGTDFTFTISSLQPEDIATYYCQQSRKLPYTFGQGTKLEIK",,3.27e+06
"VHg9/VLg12 (antibody, human IgG1, V domains shown) VH: EVQLVESGGGLVKPGGSLRLSCAASGFTFSSYAMSWVRQAPGKGLEWVSTISDGDSYSYFPDSVKDRFTISRDNAKNSLYLQMNSLRAEDTAVYYCARDRIYGSVQYYAMDYWGQGTLVTVSS VL: EIVLTQSPATLSLSPGERATLSCRASESVEFSGTSLMQWYQQKPGQAPRLLIYAASNVESGIPARFSGSGSGTDFTLTISSLEPEDFAVYYCQQSRKLPYTFGQGTKLEIK",,682000
"VHg3/VLg6 (antibody, human IgG1, V domains shown) VH: EVQLVQSGGGLVKPGGSLRLSCAASGFKFSSYAMSWVRQAPGKGLEWLSTISDGDSYSYFPDSVKDRFIISRDNAKNSLYLQMNSLRVEDTGVYYCARDRIYGSVQYYAMDYWGQGTLVTVSS VL: DVVMTQSPPSLPVTPGEPASISCRASESVEFSGTSLMQWYLQKPGQSPQVLIYAASNVESGVPDRFSGSGSGTDFTLKISRVEAEDVGVYYCQQSRKLPYTFGQGTRLEIK",,2.05e+06
"VHg10/mVL (antibody, human IgG1, V domains shown) VH: EVQLVESGGGLVQPGGSLRLSCAASGFTFSSYAMSWVRQAPGKGLEWVSTISDGDSYSYFPDSVKDRFTISRDNSKNTLYLQMNSLRAEDTAVYYCARDRIYGSVQYYAMDYWGQGTLVTVSS VL: DIVLTQSPASLAVSLGQRATISCRASESVEFSGTSLMQWYQQRPGLPPKLLIYAASNVESGVPARFSGSGSGTDFSLNIHPVEEDDIAMYFCQQSRKLPYTFGGGTKLEIN",,3.2e+06
"VHg3/VLg2 (antibody, human IgG1, V domains shown) VH: EVQLVQSGGGLVKPGGSLRLSCAASGFKFSSYAMSWVRQAPGKGLEWLSTISDGDSYSYFPDSVKDRFIISRDNAKNSLYLQMNSLRVEDTGVYYCARDRIYGSVQYYAMDYWGQGTLVTVSS VL: DIQLTQSPSSLSASVGDRVTITCRASESVEFSGTSLMQWYQQKAGLAPKLLIYAASNVESGVPSRFSGSGSGTDFTLTISSLQPEDFGTYYCQQSRKLPYTFGQGTRLEIK",,2.23e+06
"VHg1/VLg1 (antibody, human IgG1, V domains shown) VH: QVQLVQSGGGLVQPGGSLRLSCAASGFTFSSYAMSWVRQAPGKGLEWVSTISDGDSYSYFPDSVKDRFTISRDNSKNTLYLQMNSLRAEDTSVYYCARDRIYGSVQYYAMDYWGQGTLVTVSS VL: DVVMTQSPDSLAVSLGERATINCRASESVEFSGTSLMQWYQQKPGQPPKLLIYAASNVESGVPDRFSGSGSGTDFTLTISSLQAEDVVVYYCQQSRKLPYTFGGGTKVEIK",,797000
"VHg1/VLg6 (antibody, human IgG1, V domains shown) VH: QVQLVQSGGGLVQPGGSLRLSCAASGFTFSSYAMSWVRQAPGKGLEWVSTISDGDSYSYFPDSVKDRFTISRDNSKNTLYLQMNSLRAEDTSVYYCARDRIYGSVQYYAMDYWGQGTLVTVSS VL: DVVMTQSPPSLPVTPGEPASISCRASESVEFSGTSLMQWYLQKPGQSPQVLIYAASNVESGVPDRFSGSGSGTDFTLKISRVEAEDVGVYYCQQSRKLPYTFGQGTRLEIK",,1.5e+06
"VHg2/VLg1 (antibody, human IgG1, V domains shown) VH: QMQLVQSGGGLVKPGGSLRLSCAASGFTFSSYAMSWIRQAPGKGLEWVSTISDGDSYSYFPDSVKDRFTISRDNAKNSLYLQMNSLRAEDTAVYYCTRDRIYGSVQYYAMDYWGRGTLVTVSS VL: DVVMTQSPDSLAVSLGERATINCRASESVEFSGTSLMQWYQQKPGQPPKLLIYAASNVESGVPDRFSGSGSGTDFTLTISSLQAEDVVVYYCQQSRKLPYTFGGGTKVEIK",,402000
"VHg2/VLg6 (antibody, human IgG1, V domains shown) VH: QMQLVQSGGGLVKPGGSLRLSCAASGFTFSSYAMSWIRQAPGKGLEWVSTISDGDSYSYFPDSVKDRFTISRDNAKNSLYLQMNSLRAEDTAVYYCTRDRIYGSVQYYAMDYWGRGTLVTVSS VL: DVVMTQSPPSLPVTPGEPASISCRASESVEFSGTSLMQWYLQKPGQSPQVLIYAASNVESGVPDRFSGSGSGTDFTLKISRVEAEDVGVYYCQQSRKLPYTFGQGTRLEIK",,1.62e+06
"VHg5/VLg1 (antibody, human IgG1, V domains shown) VH: QVQLQQSGGGLVQAGGSLRLSCAASGFTFTSYAMSWVRQAPGKGLEWVATISDGDSYSYFPDSVKDRFIISRDNAKNSLFLQMNSLRAEDTAVYYCARDRIYGSVQYYAMDYWGRGTLVTVSS VL: DVVMTQSPDSLAVSLGERATINCRASESVEFSGTSLMQWYQQKPGQPPKLLIYAASNVESGVPDRFSGSGSGTDFTLTISSLQAEDVVVYYCQQSRKLPYTFGGGTKVEIK",,410000
"VHg9/VLg5 (antibody, human IgG1, V domains shown) VH: EVQLVESGGGLVKPGGSLRLSCAASGFTFSSYAMSWVRQAPGKGLEWVSTISDGDSYSYFPDSVKDRFTISRDNAKNSLYLQMNSLRAEDTAVYYCARDRIYGSVQYYAMDYWGQGTLVTVSS VL: EIVLTQSPGTLSLSPGERGTLSCRASESVEFSGTSLMQWYQQKPGQAPRLLIYAASNVESGIPDRFSGSGSETDFTLTISRLEPEDLAVYYCQQSRKLPYTFGQGTRLEIK",,3.05e+06
"VHg5/VLg4 (antibody, human IgG1, V domains shown) VH: QVQLQQSGGGLVQAGGSLRLSCAASGFTFTSYAMSWVRQAPGKGLEWVATISDGDSYSYFPDSVKDRFIISRDNAKNSLFLQMNSLRAEDTAVYYCARDRIYGSVQYYAMDYWGRGTLVTVSS VL: DVVMTQSPDSLAVSLGERATISCRASESVEFSGTSLMQWYQQKPRQPLKLLIYAASNVESGVPDRFSGSGSGTDFTLTISSLQAEDVAVYYCQQSRKLPYTFGQGTRLEIK",,1.44e+06
"VHg5/VLg6 (antibody, human IgG1, V domains shown) VH: QVQLQQSGGGLVQAGGSLRLSCAASGFTFTSYAMSWVRQAPGKGLEWVATISDGDSYSYFPDSVKDRFIISRDNAKNSLFLQMNSLRAEDTAVYYCARDRIYGSVQYYAMDYWGRGTLVTVSS VL: DVVMTQSPPSLPVTPGEPASISCRASESVEFSGTSLMQWYLQKPGQSPQVLIYAASNVESGVPDRFSGSGSGTDFTLKISRVEAEDVGVYYCQQSRKLPYTFGQGTRLEIK",,387000
"VHg6/VLg6 (antibody, human IgG1, V domains shown) VH: QVQLQQSGGGLVQPGGSLRLSCAASGFTFSSYAMSWVRQAPGKGLEWVATISDGDSYSYFPDSVKDRFTISRDNARNSLYLQMNSLRAEDTAVYYCARDRIYGSVQYYAMDYWGRGTLVTVSS VL: DVVMTQSPPSLPVTPGEPASISCRASESVEFSGTSLMQWYLQKPGQSPQVLIYAASNVESGVPDRFSGSGSGTDFTLKISRVEAEDVGVYYCQQSRKLPYTFGQGTRLEIK",,1.96e+06
"VHg9/VLg4 (antibody, human IgG1, V domains shown) VH: EVQLVESGGGLVKPGGSLRLSCAASGFTFSSYAMSWVRQAPGKGLEWVSTISDGDSYSYFPDSVKDRFTISRDNAKNSLYLQMNSLRAEDTAVYYCARDRIYGSVQYYAMDYWGQGTLVTVSS VL: DVVMTQSPDSLAVSLGERATISCRASESVEFSGTSLMQWYQQKPRQPLKLLIYAASNVESGVPDRFSGSGSGTDFTLTISSLQAEDVAVYYCQQSRKLPYTFGQGTRLEIK",,2.96e+06
